These are literature values, as cited in paper PMC5648805.

In general, Kd refers to the free concentration of one partner at which half of the binding sites on the other are occupied at equilibrium, for simple one-to-one binding.

One data set has as its target Orai1 (Homo sapiens) (UniProt Q96D31).
Data set [1] deals with Calmodulin (Homo sapiens) (UniProt P0DP23). The data set can be described thus: ITC.

Sequence of UniProt Q96D31 (Q96D31 whole entry): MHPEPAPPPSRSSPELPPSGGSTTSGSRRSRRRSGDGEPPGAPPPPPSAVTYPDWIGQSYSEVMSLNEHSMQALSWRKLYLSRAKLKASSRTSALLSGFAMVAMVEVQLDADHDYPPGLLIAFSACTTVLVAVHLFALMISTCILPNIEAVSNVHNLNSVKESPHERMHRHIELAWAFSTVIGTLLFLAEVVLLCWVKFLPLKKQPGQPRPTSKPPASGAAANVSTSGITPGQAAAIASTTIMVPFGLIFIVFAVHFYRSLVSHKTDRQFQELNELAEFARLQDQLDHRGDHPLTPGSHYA

Regarding STIM1 SOAR (from UniProt Q13586), the Kd with Orai1 (Homo sapiens) is 200 µM.
As to “STIM1 polybasic peptide polybasic region (from UniProt Q13586)”, the dissociation constant Kd in data set [1] is 1 µM.
